Assay results reported in patent publication US8962263B2, “Methods and compositions for detecting the activation state of multiple proteins in single cells” (The Board of Trustees of the Leland Stanford Junior …, priority 2001, dated 2015).

What was measured:
NIH3T3 = test: staurosporine induced apoptosis in ICAM-2 transduced NIH3T3 (annexin-V binding, BrdU TUNEL); type: cell-based, murine
Experimental: A) Pharmacological inhibitors of PI3K abrogate ICAM-2's anti-apoptotic. ICAM-2, or vector transduced BaF3, cells were treated with staurosporine (1, μM) with (unfilled) or without (filled) the addition of 100, nM wortmannin for 24, hours (left bar graph). Apoptosis was determined by nuclear staining and fluorescence microscopy (left bar graph) and by annexin-V binding assay (right bar graph). The proportion of apoptotic cells in each culture without staurosporine was 8%+/−2. The percentage of apoptotic cells is expressed as the mean (bar)+SD of triplicate cultures. ICAM-2, 1CAM2-AC, or vector transduced NIH3T3, were treated with staurosporine ([…]) in the presence or absence of 10, μM LY294002, for 24, hours (right bar graph). DMSO vehicle served as negative control. The percentage of apoptotic cells is expressed as the mean (bar)+/−SD of triplicate cultures. B) Confocal images of PI3K and AKT localization in ICAM-2, (top) or vector control cells (bottom). C) Confocal images of ezrin and the p85, subunit of PI3K (green) localization in ICAM-2, (top) or vector control cells (bottom).
A) The anti-apoptotic effect of ICAM-2, is both wortmannin and LY294002, sensitive. ICAM-2, or vector transduced BaF3, cells were treated with staurosporine (1, μM) with (unfilled) or without (filled) the addition of 100, nM wortmannin for 24 hours. Apoptosis was determined by nuclear staining and fluorescence microscopy (left bar graph) and by annexin-V binding assay (right bar graph). The proportion of apoptotic cells in each culture without staurosporine was 8%±2. The percentage of apoptotic cells is expressed as the mean (bar)±SD of triplicate cultures. ICAM-2, ICAM2-ΔC, or vector transduced NIH3T3, were treated with staurosporine (1, μM) in the presence or absence of 10, μM LY294002, for 24, hours. DMSO vehicle served as negative control. The percentage of apoptotic cells is expressed as the mean (bar)±SD of triplicate cultures. B) ICAM-2, expressing NIH3T3, cells are sensitive to apoptosis in the presence of PI3K inhibitor LY294002. BrdU TUNEL assay was performed in staurosporine (1, μM) or LY294002, (10, μM) treated ICAM-2, ICAM2-ΔC, and control vector transduced NIH3T3, cells. The percentage of apoptotic cells is expressed as the mean (bar)±SD of triplicate cultures.
Apoptosis was determined either by counting pyknotic nuclei, annexin-V binding by flow cytometry, or TUNEL BrdU staining by flow cytometry as indicated. Apoptosis was induced either by staurosporine (1 μm), treatment with anti-mouse Fas (5 μq/ml Santa Cruz Biotechnology (SCB), […] Fas (5 μg/ml Jo2 Biomed) or anti-human Fas (10 ng/ml CH11 Kamiya Biomedical) as indicated in appropriate experiment, IL-3 withdrawal-(24 hrs) or as indicated. For pyknolic nuclei count, NIH3T3 cells were grown on glass coverslips and assayed for apoptosis. Suspension cells were analyzed by nuclear staining with 25 μM acridine orange/25 μm ethidium bromide or 5 μg/ml Hoechst 33342 (Molecular Probes, Eugene, Oreg.). Apoptosis was identified by the presence of characteristic pyknotic nuclei as described (Jacobson and Raff, 1995). At least 5 individual fields were photographed and counted using a Zeiss axioscope fluorescence microscope. For the survival assay 10^6 NIH3T3 cells were plated in 10 cm dishes and incubated overnight at 37° C. The cells were treated with 1 μM staurosporine for 24 hours. The cells were washed and cultured for 24 hours in complete medium. The cells were trypsinized and viable cells counted following trypan blue staining. Untreated cells were counted at the time of treatment. % survival represents (number of viable cells post-treatment)/(number of viable cells pretreatment). FACS based annexin-V-FITC/PI staining was done as described (PharMingen). TUNEL assay was performed as described by manufacturer of Apoptosis BrdU kit (Promega). […]

human naïve T-cells = test: T cell activation by CD25 and CD69 markers in human naïve T cells; type: cell-based; settings: combined with CD3/CD28 stimulation
Experimental: A) Intracellular detection of IL-2, of titration of CD3/CD28, vs. LFA-1, stimulus or CD3, vs. CD28, stimulus for 6, hours. Median Fluorescent intensity is plotted as a visual array. B) Bivariate analysis of CD69, and CD25 expression in unstimulated, CD3/CD28/LFA-1, (0.001, μg/ml, 1:1:1) stimulated, and CD3/CD28, (10 μg/ml) stimulated CD4, T cells. C) Bivariate plot of CD69, expression and intracellular detection of IL-2, post 12, hour stimulation of unstimulated, CD3/CD28, and CD3/CD28/LFA-1, stimulation.
Intracellular and extracellular staining was performed as described for phospho-staining (Perez and Nolan, 2002). […] Four or less color flow cytometry data acquisition was collected on a FACSCalibur machine (Beckton Dickinson, San Jose Calif.) using CELLQuest software, analyzed and presented using FlowJo software (Tree Star, San Carlos, California). […] Data were collected by FACS-Desk software and compensated, analyzed, and presented using FlowJo software. […] Ratios of intracellular flow cytometric measurements were calculated from the following equation where MFI equals mean fluorescent intensity: Log [(MFIexperimental−MFIisotype mAb)/(MFIcontrol−MFlisotype mAb)].

LFA-1 = LFA-1 (Homo sapiens, UniProt P20701); settings: cited from earlier work
LFA-1, sequence (P20701 26-1170): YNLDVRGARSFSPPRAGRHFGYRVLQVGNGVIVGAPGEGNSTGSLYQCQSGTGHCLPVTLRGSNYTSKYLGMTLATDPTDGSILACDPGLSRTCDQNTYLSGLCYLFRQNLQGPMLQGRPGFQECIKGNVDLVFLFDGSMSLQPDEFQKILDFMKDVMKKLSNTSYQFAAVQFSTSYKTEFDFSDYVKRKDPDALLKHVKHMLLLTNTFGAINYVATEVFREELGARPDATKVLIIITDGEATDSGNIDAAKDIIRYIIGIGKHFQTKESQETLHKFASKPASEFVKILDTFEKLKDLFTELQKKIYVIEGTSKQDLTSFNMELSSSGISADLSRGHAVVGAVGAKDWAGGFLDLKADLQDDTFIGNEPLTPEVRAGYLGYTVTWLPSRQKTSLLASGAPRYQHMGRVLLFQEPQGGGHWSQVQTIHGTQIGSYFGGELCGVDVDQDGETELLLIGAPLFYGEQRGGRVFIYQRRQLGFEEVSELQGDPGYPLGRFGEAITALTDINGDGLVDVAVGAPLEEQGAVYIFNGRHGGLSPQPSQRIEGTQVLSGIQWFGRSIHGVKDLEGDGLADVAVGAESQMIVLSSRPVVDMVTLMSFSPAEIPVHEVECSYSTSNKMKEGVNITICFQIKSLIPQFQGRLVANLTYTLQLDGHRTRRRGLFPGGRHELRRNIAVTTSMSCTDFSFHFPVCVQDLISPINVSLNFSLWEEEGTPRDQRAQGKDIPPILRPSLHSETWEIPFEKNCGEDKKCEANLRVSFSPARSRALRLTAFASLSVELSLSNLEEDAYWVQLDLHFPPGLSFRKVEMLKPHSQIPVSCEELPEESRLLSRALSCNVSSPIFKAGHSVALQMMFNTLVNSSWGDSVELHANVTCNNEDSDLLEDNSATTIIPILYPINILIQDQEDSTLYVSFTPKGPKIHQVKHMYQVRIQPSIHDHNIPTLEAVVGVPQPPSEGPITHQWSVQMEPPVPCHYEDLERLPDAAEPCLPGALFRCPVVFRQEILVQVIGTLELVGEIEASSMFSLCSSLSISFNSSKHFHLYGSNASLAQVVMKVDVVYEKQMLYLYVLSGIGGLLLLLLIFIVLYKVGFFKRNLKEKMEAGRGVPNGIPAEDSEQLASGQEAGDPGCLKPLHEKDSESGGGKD
LFA-1, sequence (P05107 23-769 partner): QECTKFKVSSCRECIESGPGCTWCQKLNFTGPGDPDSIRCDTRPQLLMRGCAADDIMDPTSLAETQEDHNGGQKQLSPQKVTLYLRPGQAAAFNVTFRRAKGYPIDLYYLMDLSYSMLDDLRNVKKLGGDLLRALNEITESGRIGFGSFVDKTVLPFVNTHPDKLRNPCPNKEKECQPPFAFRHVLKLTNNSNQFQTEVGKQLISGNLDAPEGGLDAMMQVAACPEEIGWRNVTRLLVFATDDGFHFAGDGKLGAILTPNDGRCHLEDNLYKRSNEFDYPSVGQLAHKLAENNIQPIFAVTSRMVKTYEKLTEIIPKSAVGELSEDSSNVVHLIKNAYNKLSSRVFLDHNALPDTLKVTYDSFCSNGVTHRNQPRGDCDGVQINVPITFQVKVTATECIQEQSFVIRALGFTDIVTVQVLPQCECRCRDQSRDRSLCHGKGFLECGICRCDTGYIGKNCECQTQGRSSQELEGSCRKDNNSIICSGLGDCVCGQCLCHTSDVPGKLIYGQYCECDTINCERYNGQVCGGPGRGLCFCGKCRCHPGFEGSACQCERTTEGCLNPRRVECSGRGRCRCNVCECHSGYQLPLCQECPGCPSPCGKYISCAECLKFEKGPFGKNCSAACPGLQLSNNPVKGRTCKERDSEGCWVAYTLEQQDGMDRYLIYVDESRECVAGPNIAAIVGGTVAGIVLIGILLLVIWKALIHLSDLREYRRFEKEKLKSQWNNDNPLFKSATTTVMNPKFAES

Row | Molecule | ICAM-2 induced survival signal (NIH3T3; PKC isozyme inhibitors, system not specified) | effect on ICAM-2 anti-apoptotic effect, other kinase inhibitors (NIH3T3; cell type not stated, data not shown) | lowering of the CD3/CD28 stimulus threshold (human naïve T-cells) | concentration inducing LFA-1 mediated adhesion (LFA-1; bulk cellular adhesion assay) [µM] | fold lower ICAM-2 soluble protein concentration compared with P1 (LFA-1) [fold]
1 | CN(C)CCCn1cc(C2=C(c3c[nH]c4ccccc34)C(=O)NC2=O)c2ccccc21 [bisindolymaleimide I] | did not abrogate | not abrogated |  |  | 
2 | ICAM-2: biochemically purified soluble human ICAM-2 protein from retrovirally transduced NIH3T3 cells; ICAM-2-FC fusion also used (protein, UniProt P13598 25-223, looked up, extracellular domain, biochemically purified soluble human ICAM-2 protein from retrovirally transduced NIH3T3 cells; ICAM-2-FC fusion also used) extracellular domain: KVFEVHVRPKKLAVEPKGSLEVNCSTTCNQPEVGGLETSLDKILLDEQAQWKHYLVSNISHDTVLQCHFTCSGKQESMNSNVSVYQPPRQVILTLQPTLVAVGKSFTIECRVPTVEPLDSLTLFLFRGNETLHYETFGKAAPAPQEATATFNSTADREDGHRNFSCLAVLDLMSRGGNIFHKHSAPKMLEIYEPVSDSQ |  |  | 10,000 fold | 1.3 | 48
